Source: paper PMC10786891, “Massively parallel profiling of RNA-targeting CRISPR-Cas13d”

Target: T1, EsCas13d, nuclease-dead (Eubacterium siraeum, UniProt B0MS50, R295A;H300A;R849A;H854A)
T1 sequence: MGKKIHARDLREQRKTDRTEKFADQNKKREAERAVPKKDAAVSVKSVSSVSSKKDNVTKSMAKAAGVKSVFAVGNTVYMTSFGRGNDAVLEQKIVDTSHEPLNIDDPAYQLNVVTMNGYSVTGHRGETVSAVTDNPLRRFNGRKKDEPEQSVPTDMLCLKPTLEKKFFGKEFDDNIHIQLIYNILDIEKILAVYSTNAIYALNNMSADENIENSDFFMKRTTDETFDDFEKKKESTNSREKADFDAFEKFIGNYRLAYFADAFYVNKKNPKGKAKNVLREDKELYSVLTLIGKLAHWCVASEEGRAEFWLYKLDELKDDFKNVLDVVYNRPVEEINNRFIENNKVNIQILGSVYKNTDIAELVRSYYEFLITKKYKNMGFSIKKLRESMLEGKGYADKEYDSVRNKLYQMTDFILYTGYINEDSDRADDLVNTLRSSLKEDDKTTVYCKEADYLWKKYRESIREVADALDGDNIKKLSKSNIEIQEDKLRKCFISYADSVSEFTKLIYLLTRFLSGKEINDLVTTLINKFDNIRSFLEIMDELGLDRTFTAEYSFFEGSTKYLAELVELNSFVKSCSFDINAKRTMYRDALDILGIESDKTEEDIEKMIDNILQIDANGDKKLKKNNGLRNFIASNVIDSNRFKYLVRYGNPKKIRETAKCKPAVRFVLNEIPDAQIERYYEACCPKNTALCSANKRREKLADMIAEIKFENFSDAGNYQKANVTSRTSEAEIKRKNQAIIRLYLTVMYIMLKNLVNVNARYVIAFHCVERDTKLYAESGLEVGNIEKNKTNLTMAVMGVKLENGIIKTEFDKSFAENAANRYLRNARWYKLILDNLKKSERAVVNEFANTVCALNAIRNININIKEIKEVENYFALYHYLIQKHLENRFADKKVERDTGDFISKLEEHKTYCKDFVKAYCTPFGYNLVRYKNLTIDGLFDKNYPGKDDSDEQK
Experiment: crRNA (strand 1, pre-loaded); Mg2+; 40 mM Tris-HCl pH 7.5, 150 mM NaCl, 6 mM MgCl2, 1 mM DTT, 0.1% Tween-20, 0.2 mg/ml BSA; 25 C; 10 min per concentration, then washed
Details: tags: His6-TwinStrep-SUMO cleaved; N-terminal SNAP kept (SNAP-Surface 488); label: 3' end held by stalled T7 RNA polymerase

Binder | Kd [nM]
target 1 U3G,C7G (mixed) RNA 1: CACCCGUGCAAAAAUGCAGGGGUCUAAAACUGAGCGGAUAACCUCUCUAUGG RNA 2: GGGAAUGGAUCCACAUCUACGAAUUCGUACCAUAGAGAGGUUAUGCGCGCACCGAGAUCGGAAGAGCACACGU | 6.04 ± 0.33
target 1 insU 3' of 20,insU 3' of 14 (mixed) RNA 1: CACCCGUGCAAAAAUGCAGGGGUCUAAAACUGAGCGGAUAACCUCUCUAUGG RNA 2: GGGAAUGGAUCCACAUCUACGAAUUCGUACCAUUAGAGAUGGUUAUCCGCUCACCGAGAUCGGAAGAGCACACGU | 53 ± 21
target 1 U11C,G13A (mixed) RNA 1: CACCCGUGCAAAAAUGCAGGGGUCUAAAACUGAGCGGAUAACCUCUCUAUGG RNA 2: GGGAAUGGAUCCACAUCUACGAAUUCGUACCAUAGAGAAGCUAUCCGCUCACCGAGAUCGGAAGAGCACACGU | 8.7 ± 1.3
target 1 U11A,C22U (mixed) RNA 1: CACCCGUGCAAAAAUGCAGGGGUCUAAAACUGAGCGGAUAACCUCUCUAUGG RNA 2: GGGAAUGGAUCCACAUCUACGAAUUCGUAUCAUAGAGAGGAUAUCCGCUCACCGAGAUCGGAAGAGCACACGU | 52 ± 16
target 1 insA 3' of 21,insU 3' of 1 (mixed) RNA 1: CACCCGUGCAAAAAUGCAGGGGUCUAAAACUGAGCGGAUAACCUCUCUAUGG RNA 2: GGGAAUGGAUCCACAUCUACGAAUUCGUACCAAUAGAGAGGUUAUCCGCUCAUCCGAGAUCGGAAGAGCACACGU | 18.5 ± 1.3
target 1 C4G,G5C (mixed) RNA 1: CACCCGUGCAAAAAUGCAGGGGUCUAAAACUGAGCGGAUAACCUCUCUAUGG RNA 2: GGGAAUGGAUCCACAUCUACGAAUUCGUACCAUAGAGAGGUUAUCCCGUCACCGAGAUCGGAAGAGCACACGU | 15.7 ± 1
target 1 insG 3' of 19,insU 3' of 2 (mixed) RNA 1: CACCCGUGCAAAAAUGCAGGGGUCUAAAACUGAGCGGAUAACCUCUCUAUGG RNA 2: GGGAAUGGAUCCACAUCUACGAAUUCGUACCAUGAGAGAGGUUAUCCGCUCUACCGAGAUCGGAAGAGCACACGU | 57 ± 13
target 1 C6A,U10C (mixed) RNA 1: CACCCGUGCAAAAAUGCAGGGGUCUAAAACUGAGCGGAUAACCUCUCUAUGG RNA 2: GGGAAUGGAUCCACAUCUACGAAUUCGUACCAUAGAGAGGUCAUCAGCUCACCGAGAUCGGAAGAGCACACGU | 18.8 ± 1.4
target 1 insA 3' of 21,insC 3' of 1 (mixed) RNA 1: CACCCGUGCAAAAAUGCAGGGGUCUAAAACUGAGCGGAUAACCUCUCUAUGG RNA 2: GGGAAUGGAUCCACAUCUACGAAUUCGUACCAAUAGAGAGGUUAUCCGCUCACCCGAGAUCGGAAGAGCACACGU | 13.7 ± 0.7
target 1 insG 3' of 10,insA 3' of 4 (mixed) RNA 1: CACCCGUGCAAAAAUGCAGGGGUCUAAAACUGAGCGGAUAACCUCUCUAUGG RNA 2: GGGAAUGGAUCCACAUCUACGAAUUCGUACCAUAGAGAGGUUGAUCCGCAUCACCGAGAUCGGAAGAGCACACGU | 35 ± 5
target 1 insC 3' of 15,insU 3' of 12 (mixed) RNA 1: CACCCGUGCAAAAAUGCAGGGGUCUAAAACUGAGCGGAUAACCUCUCUAUGG RNA 2: GGGAAUGGAUCCACAUCUACGAAUUCGUACCAUAGAGCAGGUUUAUCCGCUCACCGAGAUCGGAAGAGCACACGU | 14.6 ± 0.9
target 1 del5,del11 (mixed) RNA 1: CACCCGUGCAAAAAUGCAGGGGUCUAAAACUGAGCGGAUAACCUCUCUAUGG RNA 2: GGGAAUGGAUCCACAUCUACGAAUUCGUACCAUAGAGAGGUAUCCCUCACCGAGAUCGGAAGAGCACACGU | 30 ± 1.5
target 1 insG 3' of 10,insU 3' of 2 (mixed) RNA 1: CACCCGUGCAAAAAUGCAGGGGUCUAAAACUGAGCGGAUAACCUCUCUAUGG RNA 2: GGGAAUGGAUCCACAUCUACGAAUUCGUACCAUAGAGAGGUUGAUCCGCUCUACCGAGAUCGGAAGAGCACACGU | 24.7 ± 1.7
target 1 G5A,A16C (mixed) RNA 1: CACCCGUGCAAAAAUGCAGGGGUCUAAAACUGAGCGGAUAACCUCUCUAUGG RNA 2: GGGAAUGGAUCCACAUCUACGAAUUCGUACCAUAGCGAGGUUAUCCACUCACCGAGAUCGGAAGAGCACACGU | 57 ± 12
target 1 insU 3' of 21,insU 3' of 18 (mixed) RNA 1: CACCCGUGCAAAAAUGCAGGGGUCUAAAACUGAGCGGAUAACCUCUCUAUGG RNA 2: GGGAAUGGAUCCACAUCUACGAAUUCGUACCUAUAUGAGAGGUUAUCCGCUCACCGAGAUCGGAAGAGCACACGU | 52 ± 5
target 1 A9C,G12U (mixed) RNA 1: CACCCGUGCAAAAAUGCAGGGGUCUAAAACUGAGCGGAUAACCUCUCUAUGG RNA 2: GGGAAUGGAUCCACAUCUACGAAUUCGUACCAUAGAGAGUUUCUCCGCUCACCGAGAUCGGAAGAGCACACGU | 19.3 ± 1.2
target 1 insG 3' of 14,insU 3' of 4 (mixed) RNA 1: CACCCGUGCAAAAAUGCAGGGGUCUAAAACUGAGCGGAUAACCUCUCUAUGG RNA 2: GGGAAUGGAUCCACAUCUACGAAUUCGUACCAUAGAGAGGGUUAUCCGCUUCACCGAGAUCGGAAGAGCACACGU | 11.7 ± 1.1
target 1 insU 3' of 22,insU 3' of 7 (mixed) RNA 1: CACCCGUGCAAAAAUGCAGGGGUCUAAAACUGAGCGGAUAACCUCUCUAUGG RNA 2: GGGAAUGGAUCCACAUCUACGAAUUCGUACUCAUAGAGAGGUUAUCUCGCUCACCGAGAUCGGAAGAGCACACGU | 43 ± 4
target 1 insA 3' of 21,insA 3' of 2 (mixed) RNA 1: CACCCGUGCAAAAAUGCAGGGGUCUAAAACUGAGCGGAUAACCUCUCUAUGG RNA 2: GGGAAUGGAUCCACAUCUACGAAUUCGUACCAAUAGAGAGGUUAUCCGCUCAACCGAGAUCGGAAGAGCACACGU | 17.7 ± 1
target 1 insC 3' of 15,insA 3' of 11 (mixed) RNA 1: CACCCGUGCAAAAAUGCAGGGGUCUAAAACUGAGCGGAUAACCUCUCUAUGG RNA 2: GGGAAUGGAUCCACAUCUACGAAUUCGUACCAUAGAGCAGGUAUAUCCGCUCACCGAGAUCGGAAGAGCACACGU | 79 ± 18
target 1 U8A,U11C (mixed) RNA 1: CACCCGUGCAAAAAUGCAGGGGUCUAAAACUGAGCGGAUAACCUCUCUAUGG RNA 2: GGGAAUGGAUCCACAUCUACGAAUUCGUACCAUAGAGAGGCUAACCGCUCACCGAGAUCGGAAGAGCACACGU | 12.6 ± 0.9
target 1 insC 3' of 20,insG 3' of 16 (mixed) RNA 1: CACCCGUGCAAAAAUGCAGGGGUCUAAAACUGAGCGGAUAACCUCUCUAUGG RNA 2: GGGAAUGGAUCCACAUCUACGAAUUCGUACCACUAGAGGAGGUUAUCCGCUCACCGAGAUCGGAAGAGCACACGU | 11.8 ± 0.9
target 1 insC 3' of 20,insA 3' of 6 (mixed) RNA 1: CACCCGUGCAAAAAUGCAGGGGUCUAAAACUGAGCGGAUAACCUCUCUAUGG RNA 2: GGGAAUGGAUCCACAUCUACGAAUUCGUACCACUAGAGAGGUUAUCCAGCUCACCGAGAUCGGAAGAGCACACGU | 11.1 ± 0.6
target 1 insG 3' of 21 (mixed) RNA 1: CACCCGUGCAAAAAUGCAGGGGUCUAAAACUGAGCGGAUAACCUCUCUAUGG RNA 2: GGGAAUGGAUCCACAUCUACGAAUUCGUACCGAUAGAGAGGUUAUCCGCUCACCGAGAUCGGAAGAGCACACGU | 67 ± 10
target 1 insC 3' of 20,insU 3' of 20 (mixed) RNA 1: CACCCGUGCAAAAAUGCAGGGGUCUAAAACUGAGCGGAUAACCUCUCUAUGG RNA 2: GGGAAUGGAUCCACAUCUACGAAUUCGUACCACUUAGAGAGGUUAUCCGCUCACCGAGAUCGGAAGAGCACACGU | 18.3 ± 0.9
target 1 insG 3' of 21,insC 3' of 9 (mixed) RNA 1: CACCCGUGCAAAAAUGCAGGGGUCUAAAACUGAGCGGAUAACCUCUCUAUGG RNA 2: GGGAAUGGAUCCACAUCUACGAAUUCGUACCGAUAGAGAGGUUACUCCGCUCACCGAGAUCGGAAGAGCACACGU | 83 ± 16
target 1 C2A,U11G (mixed) RNA 1: CACCCGUGCAAAAAUGCAGGGGUCUAAAACUGAGCGGAUAACCUCUCUAUGG RNA 2: GGGAAUGGAUCCACAUCUACGAAUUCGUACCAUAGAGAGGGUAUCCGCUAACCGAGAUCGGAAGAGCACACGU | 16.6 ± 1
target 1 insG 3' of 22,insG 3' of 2 (mixed) RNA 1: CACCCGUGCAAAAAUGCAGGGGUCUAAAACUGAGCGGAUAACCUCUCUAUGG RNA 2: GGGAAUGGAUCCACAUCUACGAAUUCGUACGCAUAGAGAGGUUAUCCGCUCGACCGAGAUCGGAAGAGCACACGU | 38 ± 5
